In article doi:10.1101/2022.02.18.481027, “Structural insights into the assembly and activation of IL-27 signalling complex” (bioRxiv, 2022):

B1: Murine IL-27, linker-connected single-chain variant (p28+EBI3) (ligand)
chain 1: YTETALVALSQPRVQCHASRYPVAVDCSWTPLQAPNSTRSTSFIATYRLGVATQQQSQPCLQRSPQASRCTIPDVHLFSTVPYMLNVTAVHPGGASSSLLAFVAERIIKPDPPEGVRLRTAGQRLQVLWHPPASWPFPDIFSLKYRLRYRRRGASHFRQVGPIEATTFTLRNSKPHAKYCIQVSAQDLTDYGKPSDWSLPGQVESAPHKP
chain 2: FPTDPLSLQELRREFTVSLYLARKLLSEVQGYVHSFAESRLPGVNLDLLPLGYHLPNVSLTFQAWHHLSDSERLCFLATTLRPFPAMLGGLGTQGTWTSSEREQLWAMRLDLRDLHRHLRFQVLAAGFKCSKEEEDKEEEEEEEEEEKKLPLGALGGPNQVSSQVSWPQLLYTYQLLHSLELVLSRAVRDLLLLSLPRRPGSAWDS
B2: Murine IL-27Rα ectodomain (amino acids 28-224), N-terminally biotinylated (receptor, UniProt O70394 28-224, looked up)
chain: HGSPGPLQCYSVGPLGILNCSWEPLGDLETPPVLYHQSQKYHPNRVWEVKVPSKQSWVTIPREQFTMADKLLIWGTQKGRPLWSSVSVNLETQMKPDTPQIFSQVDISEEATLEATVQWAPPVWPPQKVLICQFRYKECQAETWTRLEPQLKTDGLTPVEMQNLEPGTCYQVSGRCQVENGYPWGEWSSPLSFQTPF
modifications: N-terminal biotin (EZ-Link Sulfo-NHS-SS-Biotin, at pH 6.5)
notes: murine IL-27Rα, amino acids 28-224; also called biotinylated IL-27Rα; source: baculovirus, Trichoplusia ni (High Five) cells, secreted, purified (Ni-NTA, SEC), biotinylated in vitro

How the values were obtained:
[1] = biological target: T1, Murine GP130 ectodomain with C-terminal biotin acceptor peptide, biotinylated (murine, UniProt Q00560 23-319, biotin on the biotin acceptor peptide (BirA ligase)); experiment: SPR
T1 chain: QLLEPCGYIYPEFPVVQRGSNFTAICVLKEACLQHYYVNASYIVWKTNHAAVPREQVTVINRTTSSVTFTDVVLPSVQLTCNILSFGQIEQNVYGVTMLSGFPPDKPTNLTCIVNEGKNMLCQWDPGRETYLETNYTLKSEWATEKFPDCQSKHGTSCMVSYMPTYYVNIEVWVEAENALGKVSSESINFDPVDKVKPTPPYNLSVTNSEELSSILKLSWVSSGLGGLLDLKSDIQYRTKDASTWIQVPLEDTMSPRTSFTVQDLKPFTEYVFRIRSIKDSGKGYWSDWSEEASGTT

[2] = biological target: T2, Murine IL-27Rα ectodomain (amino acids 28-224), N-terminally biotinylated (murine, UniProt O70394 28-224, N-terminal biotin (EZ-Link Sulfo-NHS-SS-Biotin, at pH 6.5)); experiment: SPR
T2 chain: B2 chain

[3] = biological target: T3, p28 (IL-27p28), recombinant, alone (murine, UniProt Q8K3I6 29-234); experiment: SPR; biotinylated IL-27Rα or GP130 immobilised on a streptavidin chip (Series S Sensor SA), p28 flowed over; equilibrium analysis; 10 mM HEPES, 150 mM NaCl, 0.05% TWEEN-20, 0.5% BSA; Biacore T100; conditions: both partners purified
T3 construct: IL-27p28 (p28) without EBI3; the construct is not described; The methods of expression name no p28 construct; source: recombinantly produced
T3 sequence (looked up): B1 chain 2

Row | Binder | koff [1] [s⁻¹] | koff [2] [s⁻¹] | Kd [3] [nM]
1 | B1 | 0.021 | 0.001 | 
2 | B2 |  |  | 2800
